Values quoted from earlier work in publication PMC10636758.

Legend:
HP1α (Homo sapiens) = HP1α (Homo sapiens) (UniProt P45973)
[1] = molecular target: Histone H3 peptide (Homo sapiens)

HP1α (from UniProt P45973)
Kd (HP1α (Homo sapiens)): < 1 µM

HP1α CSD (from UniProt P45973)
Kd [1]: 58 µM
